Experimental data as given in article PMC4515144 (Chemistry & biology, 2015).
*: point of attachment. P‑1 benzyl acid (p-CN) = benzyl acid lacking the N-terminal amino group (p-cyano substituted), replacing Tyr at P-1, N#Cc1ccc(CCC(=O)*)cc1; P‑1 benzyl acid (p-SO2NH2) = p-sulfonamide (SO2NH2) benzyl acid lacking the N-terminal amino group, replacing Tyr P-1; P‑1 benzyl acid (m-CH3) = m-methyl benzyl acid lacking the N-terminal amino group, replacing Tyr P-1; P‑1 benzyl acid (m-Cl) = m-chloro benzyl acid lacking the N-terminal amino group, replacing Tyr P-1; P‑1 benzyl acid (m-F) = m-fluoro benzyl acid lacking the N-terminal amino group, replacing Tyr P-1; P‑1 benzyl acid (p-NH2) = benzyl acid at P-1 lacking the N-terminal amino group, replacing Tyr P-1; Propanoyl(3-(4-F-phenyl)) = O=C(CCc1ccc(F)cc1)*

Experiments:
[1] = mice; ref Singla et al., 2002; Zhang et al., 2013; cited from earlier work
[2] = Plasma stability by LC-MS; details: rat plasma, 37 °C; 123B7 versus YSA, 123B4 versus YSA-9mer
[3] = cited from earlier work
[4] = target: EphA2-LBD (residues 27-200) (Homo sapiens, UniProt P29317); assay: 1D 1H-aliph NMR binding assay, rank ordering; details: 10 μM EphA2-LBD, 100 μM compound; arbitrary scale 1 to 5
[5] = target: EphA2 ligand binding domain (residues 27-200) (UniProt P29317 27-200); assay: NMR titration
Sequence of EphA2 ligand binding domain (residues 27-200) (P29317 27-200): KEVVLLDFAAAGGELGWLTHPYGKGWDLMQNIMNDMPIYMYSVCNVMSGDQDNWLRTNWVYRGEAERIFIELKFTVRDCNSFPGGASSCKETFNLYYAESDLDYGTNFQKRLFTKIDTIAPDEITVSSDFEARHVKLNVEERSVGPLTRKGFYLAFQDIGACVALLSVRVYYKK

Sequence of EphA2-LBD (residues 27-200) (P29317 27-200): as above

| Molecule | Rank ordering by NMR [5] | other results |
| --- | --- | --- |
| CC(=O)O[C@H]1C(=O)[C@@]2(C)[C@H]([C@H](OC(=O)c3ccccc3)[C@]3(O)C[C@H](OC(=O)[C@H](O)[C@@H](NC(=O)c4ccccc4)c4ccccc4)C(C)=C1C3(C)C)[C@]1(OC(C)=O)CO[C@@H]1C[C@@H]2O [PTX, paclitaxel] |  | single dose MTD [1]: < 30 mg/kg |
| CSCC[C@H](NC(=O)[C@H](CCSC)NC(=O)[C@@H]1CCCN1C(=O)[C@@H](NC(=O)[C@H](CO)NC(=O)[C@H](CC(=O)O)NC(=O)[C@@H]1CCCN1C(=O)[C@H](Cc1ccc(O)cc1)NC(=O)[C@H](C)NC(=O)[C@H](CO)NC(=O)COc1ccc(F)c(Cl)c1)C(C)C)C(=O)N[C@@H](CO)C(N)=O [123B7] |  | plasma stability versus corresponding non-optimized peptide [2]: significantly improved peptide stability |
| ySAYPDSVP-Nle-Hsr-S [dYNH] |  | half-life in plasma [3]: > 1 h |
| 120H5 ({P‑1 benzyl acid (p-NH2)}-SAYPDSVP-NH2) |  | Rank ordering by NMR [4]: 1 |
| {P‑1 benzyl acid (p-CN)}-SAYPDSVP-NH2 [120A5] | 3 rank, arbitrary scale 1-5 |  |
| {P‑1 benzyl acid (p-SO2NH2)}-SAYPDSVP-NH2 [120H8] | 3 rank, arbitrary scale 1-5 |  |
| {P‑1 benzyl acid (m-CH3)}-SAYPDSVP-NH2 [123A12] | 4 rank, arbitrary scale 1-5 |  |
| {Propanoyl(3-(4-F-phenyl))}-SAYPDSVP-NH2 [120F11] | 2 rank, arbitrary scale 1-5 |  |

More lines, main results first:

| Rank ordering by NMR [5] | Molecule | other results |
| --- | --- | --- |
| 1 rank, arbitrary scale 1-5 | {P‑1 benzyl acid (p-NH2)}-SAYPDSVP-NH2 [120H5] |  |
| 2 rank, arbitrary scale 1-5 | {P‑1 benzyl acid (m-F)}-SAYPDSVP-NH2 [120G7] |  |
| 4 rank, arbitrary scale 1-5 | {P‑1 benzyl acid (m-Cl)}-SAYPDSVP-NH2 [120G8] |  |
